Reference: patent US20230012273A1 (Boehringer Ingelheim, published 2023)

T1: cynoSIRPα (XP_015313155), Extracellular Domain + His-Tag (cynomolgus monkey)
T1 construct: also called CySIRPα XP_015313155; not shown: His-Tag
T1 chain: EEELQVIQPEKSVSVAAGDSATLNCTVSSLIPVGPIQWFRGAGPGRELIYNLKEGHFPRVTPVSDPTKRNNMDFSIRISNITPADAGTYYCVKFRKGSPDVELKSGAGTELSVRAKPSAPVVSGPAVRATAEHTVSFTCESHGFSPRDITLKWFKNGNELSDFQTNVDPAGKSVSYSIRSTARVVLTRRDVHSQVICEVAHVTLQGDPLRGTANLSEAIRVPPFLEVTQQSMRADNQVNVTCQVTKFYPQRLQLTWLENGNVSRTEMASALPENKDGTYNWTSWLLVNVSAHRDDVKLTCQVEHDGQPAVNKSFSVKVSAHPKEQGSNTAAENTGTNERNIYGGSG

T2: cynoSIRPα (NP_001271679), Extracellular Domain + His-Tag (cynomolgus monkey)
T2 construct: also called CySIRPα NP_001271679; not shown: His-Tag
T2 chain: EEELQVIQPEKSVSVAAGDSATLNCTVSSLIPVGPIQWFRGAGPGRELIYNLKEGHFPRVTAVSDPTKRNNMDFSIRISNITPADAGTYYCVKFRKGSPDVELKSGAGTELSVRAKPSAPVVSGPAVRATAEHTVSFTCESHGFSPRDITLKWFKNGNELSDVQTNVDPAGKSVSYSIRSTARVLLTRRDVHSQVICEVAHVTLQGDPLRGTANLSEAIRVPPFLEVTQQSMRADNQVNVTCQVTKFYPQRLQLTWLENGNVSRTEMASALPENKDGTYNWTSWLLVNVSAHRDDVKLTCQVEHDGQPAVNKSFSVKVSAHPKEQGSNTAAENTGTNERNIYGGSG

T3: cynoSIRPα (EGM_02252), Extracellular Domain + His-Tag (cynomolgus monkey)
T3 construct: also called CySIRPα EGM_02252; not shown: His-Tag
T3 chain: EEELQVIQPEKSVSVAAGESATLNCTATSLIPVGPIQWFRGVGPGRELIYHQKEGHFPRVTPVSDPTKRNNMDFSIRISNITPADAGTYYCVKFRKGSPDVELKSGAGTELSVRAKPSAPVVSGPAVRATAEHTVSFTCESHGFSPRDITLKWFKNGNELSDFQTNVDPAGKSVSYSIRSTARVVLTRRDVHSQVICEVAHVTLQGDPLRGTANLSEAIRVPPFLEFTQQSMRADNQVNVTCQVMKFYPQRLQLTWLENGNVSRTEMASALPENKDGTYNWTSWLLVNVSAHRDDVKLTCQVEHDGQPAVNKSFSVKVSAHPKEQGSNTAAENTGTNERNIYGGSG


What was measured:
[1] = target: T1, cynoSIRPα (XP_015313155), Extracellular …; test: SPR, antibody captured on Protein A/G, ECD-His analyte, steady-state fit
Procedure: (§1) The binding kinetics of anti-SIRPα antibodies to various SIRPα analytes are determined by surface plasmon resonance (SPR) using a Biacore 8K+(Cytiva). 1×HBS-EP+(Cytiva) is used as running buffer and for all the dilutions unless stated otherwise. The Series S CM5 sensorchip is activated with a 1:1 mixture of 0.1 M NHS (N-hydroxysuccinimide) and 0.4 M EDC (1-Ethyl-3-(3-dimethylaminopropyl) carbodiimide hydrochloride) for 420 seconds at a flow rate of 10 μl/min and immobilized with Protein A/G (Thermo Scientific, 10 μg/ml in 10 mM acetate pH 4.5) for 420 seconds at a flowrate of 10 μl/min resulting in approximately 3000 RU of Protein A/G on the surface. The sensorchip is then deactivated with 1 M ethanolamine HCl pH 8.5 for 420 seconds at a flowrate of 10 μl/min.
(§2) Antibodies (approximately 1 ug/ml) are captured on the Protein A/G surface for 60 seconds at a flowrate of 10 μl/min resulting in capture levels of approximately 240 RU. Dilutions of each SIRP protein (Extracellular Domain+His-Tag, with the concentrations as indicated) are injected as analytes over the captured antibody for 300 seconds of association at a flowrate of 30 μl/min, followed by a dissociation for 600 seconds.
(§3) The above procedures are used to measure binding properties of antibodies of the present disclosure. For each analyte used, the highest concentration was as indicated in Example 3 (see Table 36).

[2] = target: T2, cynoSIRPα (NP_001271679), Extracellular …; test: as above
Procedure: as §1, §2, §3

[3] = target: T3, cynoSIRPα (EGM_02252), Extracellular …; test: as above
Procedure: as §1, §2, §3

[4] = target: T4, human SIRPβL/SIRPβ1v3 extracellular domain + His-tag (NP_001129316.1) (human, UniProt Q5TFQ8 30-371); test: SPR, Ab captured, ECD-His analyte
T4 construct: also called hSIRPβ1v3; HuSIRPβ1v3
Procedure: (§4) The binding affinity of anti-SIRPα antibodies to the various SIRPα analytes is determined by surface plasmon resonance (SPR) using a ProteOn XPR36 (Bio-Rad). The running buffer for this experiment and all dilutions (except where stated) are done in 1×HBS-EP+. […] The sensorchip is deactivated with 1M ethanolamine HCl for 420 sec at a flowrate of 10 μl/min.
(§5) The analyte is injected over the captured antibody for 300 sec at a flowrate of 30 μl/min. The dissociation is done for 600 sec. Two-fold serial dilutions of each SIRP protein (Extracellular Domain+His-Tag) are injected as analyte with the highest concentrations indicated in table 36 below.

[5] = target: T5, human SIRPαV2 extracellular domain + His-tag (CAA71403.1) (human, UniProt P78324 31-373); test: SPR, Ab captured, ECD-His analyte
T5 construct: also called hSIRPαV2; HuSIRPαV2
Procedure: as §4, §5

[6] = target: T6, human SIRPγ extracellular domain + His-tag (NP_061026.2) (human, UniProt Q9P1W8 29-360); test: SPR, Ab captured, ECD-His analyte
T6 construct: also called hSIRPγ; HuSIRPγ
Procedure: as §4, §5

[7] = target: T7, human SIRPβ1 extracellular domain + His-tag (NP_006056.2) (human, UniProt O00241 30-371); test: SPR, Ab captured, ECD-His analyte
T7 construct: also called hSIRPβ1; HuSIRPβ1
Procedure: as §4, §5

[8] = target: T8, human SIRPαV1 extracellular domain + His-tag (NP_542970.1) (human, UniProt P78324 31-373); test: SPR, Ab captured, ECD-His analyte
T8 construct: also called hSIRPαV1; HuSIRPαV1
Procedure: as §4, §5

T8 sequence (P78324 other isoform, or with tags, fused parts or gaps): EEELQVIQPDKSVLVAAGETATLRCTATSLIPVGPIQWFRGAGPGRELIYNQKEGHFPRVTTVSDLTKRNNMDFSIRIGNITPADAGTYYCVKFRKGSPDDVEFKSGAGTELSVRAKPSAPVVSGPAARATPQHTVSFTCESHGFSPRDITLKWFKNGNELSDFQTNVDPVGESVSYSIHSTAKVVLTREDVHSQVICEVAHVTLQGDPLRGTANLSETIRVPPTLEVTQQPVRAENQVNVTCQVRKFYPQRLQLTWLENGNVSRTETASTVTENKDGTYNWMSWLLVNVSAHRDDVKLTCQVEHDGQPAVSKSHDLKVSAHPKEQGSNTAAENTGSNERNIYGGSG
T7 sequence (O00241 other isoform, or with tags, fused parts or gaps): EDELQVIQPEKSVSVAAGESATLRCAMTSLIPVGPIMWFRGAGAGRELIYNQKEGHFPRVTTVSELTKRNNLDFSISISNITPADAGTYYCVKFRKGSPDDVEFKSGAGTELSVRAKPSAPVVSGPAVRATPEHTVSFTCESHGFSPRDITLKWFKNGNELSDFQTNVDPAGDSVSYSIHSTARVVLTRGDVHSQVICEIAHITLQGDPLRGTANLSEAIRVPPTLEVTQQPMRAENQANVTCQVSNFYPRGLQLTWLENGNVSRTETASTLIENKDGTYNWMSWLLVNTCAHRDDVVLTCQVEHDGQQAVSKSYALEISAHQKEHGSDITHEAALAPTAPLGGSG
T4 sequence (Q5TFQ8 other isoform, or with tags, fused parts or gaps): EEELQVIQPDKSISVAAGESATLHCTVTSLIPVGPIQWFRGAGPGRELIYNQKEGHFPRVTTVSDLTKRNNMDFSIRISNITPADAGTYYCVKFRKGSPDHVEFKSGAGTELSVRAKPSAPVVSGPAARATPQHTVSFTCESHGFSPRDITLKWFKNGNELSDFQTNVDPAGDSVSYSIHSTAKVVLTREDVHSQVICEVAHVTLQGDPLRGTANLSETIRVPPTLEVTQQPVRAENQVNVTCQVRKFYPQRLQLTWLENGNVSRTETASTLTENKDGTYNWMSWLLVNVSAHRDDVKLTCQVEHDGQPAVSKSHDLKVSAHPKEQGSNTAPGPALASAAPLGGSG
T6 sequence (Q9P1W8 29-360): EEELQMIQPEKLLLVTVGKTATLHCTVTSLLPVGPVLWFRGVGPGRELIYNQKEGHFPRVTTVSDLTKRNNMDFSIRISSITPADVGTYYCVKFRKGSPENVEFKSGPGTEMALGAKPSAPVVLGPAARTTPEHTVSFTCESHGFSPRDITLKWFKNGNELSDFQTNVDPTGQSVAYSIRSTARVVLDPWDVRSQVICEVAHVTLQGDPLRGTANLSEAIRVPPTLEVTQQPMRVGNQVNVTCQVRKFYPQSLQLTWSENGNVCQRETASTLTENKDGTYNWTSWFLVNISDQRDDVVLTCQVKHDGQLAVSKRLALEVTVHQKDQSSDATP
T5 sequence (P78324 other isoform, or with tags, fused parts or gaps): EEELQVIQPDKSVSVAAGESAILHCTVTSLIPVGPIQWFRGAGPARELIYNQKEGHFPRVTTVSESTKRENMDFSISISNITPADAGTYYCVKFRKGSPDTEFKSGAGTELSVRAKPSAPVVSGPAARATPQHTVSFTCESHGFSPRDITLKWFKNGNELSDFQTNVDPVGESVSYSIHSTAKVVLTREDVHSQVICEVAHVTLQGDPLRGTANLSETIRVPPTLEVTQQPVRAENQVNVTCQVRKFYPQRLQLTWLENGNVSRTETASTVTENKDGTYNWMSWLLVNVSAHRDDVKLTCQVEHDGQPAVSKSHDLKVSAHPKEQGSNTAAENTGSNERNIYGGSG

| Binder | Kd [1] | Kd [2] | Kd [3] | Kd [4] | Kd [5] | binding result [6] | binding result [7] | Kd [8] | Kd [7] |
| --- | --- | --- | --- | --- | --- | --- | --- | --- | --- |
| Antibody A4 (antibody, human IgG1, kappa, L234A L235A, V domains shown) VH: EVQLVESGGGLVQPGGSLRLSCAASGFTLSSYDMHWVRQAPGKGLEWVSAIGTAGDTYYTGSVKGRFTISRENAKNSLYLQMNSLRAADTAVYYCVRGGVWDDAFDIWGQGTMVTVSS VL: DIQMTQSPSSLSASVGDRVTITCRASQGINNYAAWFQQKPGKAPKSLIYTASSLHSGVPSKFSGSGSGTDFTLTISSLQPEDFATYYCQQYVSYPYTFGQGTKLEIKR | 420 nM | 669 nM | 488 nM | – | – | – | – | – | – |
| Antibody A10 (antibody, human IgG1, kappa, L234A L235A) heavy: not shown light: DIQMTQSPSSLSASVGDRVTITCRASQDINNYLAWFQQKPGKAPKSLIYTASSLHSGVPSKFSGSGSGTDFTLTISSLQPEDFATYYCQQYVSYPYTFGQGTKLEIKRTVAAPSVFIFPPSDEQLKSGTASVVCLLNNFYPREAKVQWKVDNALQSGNSQESVTEQDSKDSTYSLSSTLTLSKADYEKHKVYACEVTHQGLSSPVTKSFNRGEC | 203 nM | 388 nM | 282 nM | – | – | – | – | – | – |
| Antibody E13 (antibody, human IgG1, kappa, L234A L235A, V domains shown) VH: QVQLQESGPGLVRPSETLSLTCTVSGGSIRNYYWSWIRQPPGKGLEWIGFIYYTGRTFYNPSLKSRVTISLDMSINQFSLKMTSVTAADTAVYYCARVRAYSGIGLDGTDVWGQGTTVTVSS VL: DIVMTQSPLSLPVTPGEPASISCKSSQSLLYSNGYAYLDWYLQRPGQSPQLLIYQGSNRASGVPDRFSGSGSGTDFTLKISRVEAEDVGVFYCMQALQTPLTFGGGTKVEIKR | – | – | – | 4.17 nM | 0.69 nM | no binding (tested: 1000 nM) | no binding (tested: 1000 nM) | 1.7 nM | – |
| Antibody E14 (antibody, human IgG1, kappa, L234A L235A, V domains shown) VH: QVQLQESGPGLVRPSETLSLTCTVSGGSIRNYYWSWIRQPPGKGLEWIGFIYYNGRTFYNPSLKSRVTISLDKSKNQFSLKMTSVTAADTAVYYCARVRAYSGIGLDGTDVWGQGTTVTVSS VL: DIVMTQSPLSLPVTPGEPASISCKSSQSLLYSNAYNYLDWYLQRPGQSPQLLIYLGSNRASGVPDRFSGSGSGTDFTLKISRVEAEDVGVYYCMQALQTPLTFGGGTKVEIKR | – | – | – | 4.8 nM | 1.36 nM | no binding (tested: 1000 nM) | no binding (tested: 1000 nM) | 1.84 nM | – |
| Antibody E15 (antibody, human IgG1, kappa, L234A L235A, V domains shown) VH: QVQLQESGPGLVRPSETLSLTCTVSGGSIRNYYWSWIRQPPGKGLEWIGFIYYTGRTFYNPSLKSRVTISLDMSINQFSLKMTSVTAADTAVYYCARVRAYSGIGLDGTDVWGQGTTVTVSS VL: DIVMTQSPLSLPVTPGEPASISCKSSQSLLYSNGYAYLDWYLQRPGQSPQLLIYLGSNRASGVPDRFSGSGSGTDFTLKISRVEAEDVGVYYCMQALQTPLTFGGGTKVEIKR | – | – | – | 4.56 nM | 0.737 nM | no binding (tested: 1000 nM) | no binding (tested: 1000 nM) | 1.91 nM | – |
| Antibody E17 (antibody, human IgG1, kappa, L234A L235A, V domains shown) VH: QVQLQESGPGLVRPSETLSLTCTVSGGSIRNYYWSWIRQPPGKGLEWMGFIYDNGRTFYNPSLKSRVTISLDMSMNQFSLKMTSVTAADTAVYYCARVRAYSGIGLDGTDVWGQGTTVTVSS VL: DIVMTQSPLSLPVTPGEPASISCKSSQSLLYSNAYNYLDWYLQRPGQSPQLLIYLGSNRASGVPDRFSGSGSGTDFTLKISRVEAEDVGVYYCMQALQTPLTFGGGTKVEIKR | – | – | – | 5.32 nM | 0.797 nM | no binding (tested: 1000 nM) | no binding (tested: 1000 nM) | 2.36 nM | – |
| Antibody E18 (antibody, human IgG1, kappa, L234A L235A, V domains shown) VH: QVQLQESGPGLVRPSETLSLTCTVSGGSIRNYYWSWIRQPPGKGLEWIGFIYYTGRTFYNPSLKSRVTISLDMSKNQFSLKMTSVTAADTAVYYCARVRAYSGIGLDGTDVWGQGTTVTVSS VL: DIVMTQSPLSLPVTPGEPASISCKSSQSLLYSNGYAYLDWYLQRPGQSPQLLIYLGSNRASGVPDRFSGSGSGTDFTLKISRVEAEDVGVYYCMQALQTPLTFGGGTKVEIKR | – | – | – | 4.8 nM | 0.898 nM | no binding (tested: 1000 nM) | no binding (tested: 1000 nM) | 2.46 nM | – |
| Antibody E19 (antibody, human IgG1, kappa, L234A L235A, V domains shown) VH: QVQLQESGPGLVRPSETLSLTCTVSGGSIRNYYWSWIRQPPGKGLEWIGFIYYTGRTFYNPSLKSRVTISLDMSKNQFSLKMTSVTAADTAVYYCARVRAYSGIGLDGTDVWGQGTTVTVSS VL: DIVMTQSPLSLPVTPGEPASISCKSSQSLLYSNGYAYLDWYLQRPGQSPQLLIYQGSNRASGVPDRFSGSGSGTDFTLKISRVEAEDVGVFYCMQALQTPLTFGGGTKVEIKR | – | – | – | 4.74 nM | 0.97 nM | no binding (tested: 1000 nM) | – | 2.52 nM | 1660 nM |
| Antibody E20 (antibody, human IgG1, kappa, L234A L235A, V domains shown) VH: QVQLQESGPGLVRPSETLSLTCTVSGGSIRNYYWSWIRQPPGKGLEWIGFIYYTGRTFYNPSLKSRVTISLDMSINQFSLKMTSVTAADTAVYYCARVRAYSGIGLDGTDVWGQGTTVTVSS VL: DIVMTQSPLSLPVTPGEPASISCKSSQSLLYSNAYNYLDWYLQRPGQSPQLLIYLGSNRASGVPDRFSGSGSGTDFTLKISRVEAEDVGVYYCMQALQTPLTFGGGTKVEIKR | – | – | – | 8.48 nM | 1.11 nM | no binding (tested: 1000 nM) | – | 3.42 nM | 435 nM |
| Antibody E21 (antibody, human IgG1, kappa, L234A L235A, V domains shown) VH: QVQLQESGPGLVRPSETLSLTCTVSGGSIRNYYWSWIRQPPGKGLEWIGFIYYTGRTFYNPSLKSRVTISLDMSKNQFSLKMTSVTAADTAVYYCARVRAYSGIGLDGTDVWGQGTTVTVSS VL: DIVMTQSPLSLPVTPGEPASISCKSSQSLLYSNAYNYLDWYLQRPGQSPQLLIYLGSNRASGVPDRFSGSGSGTDFTLKISRVEAEDVGVYYCMQALQTPLTFGGGTKVEIKR | – | – | – | 8.84 nM | 1.39 nM | no binding (tested: 1000 nM) | no binding (tested: 1000 nM) | 4.46 nM | – |
